Assay results published in publication PMC5033702.

Columns and labels:
[1] = biological target: DDX5-K144N (MBP-DDX5-GST) (UniProt P17844 1-614, K144N); assay: fluorescence anisotropy
DDX5 WT (MBP-DDX5-GST) = DDX5 WT (MBP-DDX5-GST) (UniProt P17844 1-614); assay: fluorescence anisotropy
Sequence of DDX5 WT (MBP-DDX5-GST) (P17844 whole entry): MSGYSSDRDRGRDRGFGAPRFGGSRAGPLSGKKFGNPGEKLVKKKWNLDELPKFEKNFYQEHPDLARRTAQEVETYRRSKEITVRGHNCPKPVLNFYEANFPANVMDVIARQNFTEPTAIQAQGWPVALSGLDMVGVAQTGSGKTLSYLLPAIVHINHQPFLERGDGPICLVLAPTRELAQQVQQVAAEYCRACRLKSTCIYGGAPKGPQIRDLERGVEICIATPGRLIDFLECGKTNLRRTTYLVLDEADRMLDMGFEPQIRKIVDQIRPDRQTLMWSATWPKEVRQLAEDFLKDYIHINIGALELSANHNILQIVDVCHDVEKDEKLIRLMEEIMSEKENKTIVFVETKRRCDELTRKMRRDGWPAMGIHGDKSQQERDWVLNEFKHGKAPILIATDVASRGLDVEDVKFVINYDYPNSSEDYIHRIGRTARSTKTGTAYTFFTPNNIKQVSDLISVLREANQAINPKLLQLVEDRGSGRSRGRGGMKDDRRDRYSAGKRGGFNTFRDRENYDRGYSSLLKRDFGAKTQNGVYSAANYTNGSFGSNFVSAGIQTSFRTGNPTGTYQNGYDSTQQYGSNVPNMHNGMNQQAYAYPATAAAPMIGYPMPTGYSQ

Sequence of DDX5-K144N (MBP-DDX5-GST) (P17844 whole entry K144N): as the sequence (P17844 whole entry) above, with K144N counted along it

With AGCACCGUAAAGACGC (ssRNA) [6-FAM ssRNA 16-mer] the binding signal [1] was ~4 fold reduced affinity vs WT (nearly 4-fold) and the binding result (DDX5 WT (MBP-DDX5-GST)) was “binds”.
